# Assay results from IntAct's records for PubMed 23112296.
# B1: Keratin, type I cytoskeletal 18 (Homo sapiens), P05783 (parent)
# chain: MSFTTRSTFSTNYRSLGSVQAPSYGARPVSSAASVYAGAGGSGSRISVSRSTSFRGGMGSGGLATGIAGGLAGMGGIQNEKETMQSLNDRLASYLDRVRSLETENRRLESKIREHLEKKGPQVRDWSHYFKIIEDLRAQIFANTVDNARIVLQIDNARLAADDFRVKYETELAMRQSVENDIHGLRKVIDDTNITRLQLETEIEALKEELLFMKKNHEEEVKGLQAQIASSGLTVEVDAPKSQDLAKIMADIRAQYDELARKNREELDKYWSQQIEESTTVVTTQSAEVGAAETTLTELRRTVQSLEIDLDSMRNLKASLENSLREVEARYALQMEQLNGILLHLESELAQTRAEGQRQAQEYEALLNIKVKLEAEIATYRRLLEDGEDFNLGDALDSSNSMQTIQKTTTRRIVDGKVVSETNDTKVLRH
# Variants of: B1
# Conditions: with becn1_human BECN1, Q14457
# Chain of becn1_human BECN1, Q14457 (Q14457 whole entry): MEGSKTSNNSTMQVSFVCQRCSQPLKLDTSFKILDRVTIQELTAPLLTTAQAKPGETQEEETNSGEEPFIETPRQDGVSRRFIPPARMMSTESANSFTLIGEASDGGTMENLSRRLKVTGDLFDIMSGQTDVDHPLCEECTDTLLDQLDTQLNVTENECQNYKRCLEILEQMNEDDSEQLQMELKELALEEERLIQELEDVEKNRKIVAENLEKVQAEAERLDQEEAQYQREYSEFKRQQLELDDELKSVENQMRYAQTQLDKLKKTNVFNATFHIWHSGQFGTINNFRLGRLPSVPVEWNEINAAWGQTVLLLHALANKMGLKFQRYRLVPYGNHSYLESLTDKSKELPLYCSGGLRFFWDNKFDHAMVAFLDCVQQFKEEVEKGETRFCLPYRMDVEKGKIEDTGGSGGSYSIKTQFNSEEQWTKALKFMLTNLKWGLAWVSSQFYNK
row,Variant,effect of a mutation on the interaction
1,S34A,disrupting interaction strength
